These results are taken from publication PMC4946999 (ACS chemical biology, 2016).

The target in series [1] is FITC-labeled PIASγ peptide derived from the essential PIASγ LXXLL motif. Put plainly: fluorescence polarisation. For orientation: Fluorescence polarisation rises when a labelled molecule tumbles more slowly, as on binding a larger partner.
The series “SEC” concerns the molecule itself. Nature of the series: SEC. Background: In gel filtration, larger molecules generally elute earlier.

Consider “Nurr1 ligand-binding domain (LBD) (from UniProt P43354 328-598) (domain or fragment)”, for which the dissociation constant Kd (commonly the constant that tells how readily two partners part at equilibrium) in series [1] is 3.5 µM.

B1: Nurr1 ligand-binding domain (LBD) (domain or fragment)
chain: MVKEVVRTDSLKGRRGRLPSKPKSPQEPSPPSPPVSLISALVRAHVDSNPAMTSLDYSRFQANPDYQMSGDDTQHIQQFYDLLTGSMEIIRGWAEKIPGFADLPKADQDLLFESAFLELFVLRLAYRSNPVEGKLIFCNGVVLHRLQCVRGFGEWIDSIVEFSSNLQNMNIDISAFSCIAALAMVTERHGLKEPKRVEELQNKIVNCLKDHVTFNNGGLNRPNYLSKLLGKLPELRTLCTQGLQRIFYLKLEDLVPPPAIIDKLFLDTLPF
In the case of B1, the stoichiometry N (as a rule, the number of molecules, sites or subunits per partner or assembly) in the series “SEC” was 2.
